The source of these data is the supplement of paper PMC11780869.

The data set has as its system Bacillus subtilis. In words: cleaved RNA product abundance (RNA/gDNA barcode ratio) relative to median wild-type variant (ratio to wild type); higher = more accumulation of the downstream cleavage product. The essentials:
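Reporter mRNAs based on truncated aprE or tetM carried barcoded, mutagenized RNase Y cleavage-site windows built from oligos with a 9% error rate and were integrated into the B. subtilis chromosome. Cultures grew in LB at 37°C from OD600 0.0003 to 0.3. Cleaved RNA was gel-selected, reverse transcribed and barcode-sequenced together with genomic DNA barcodes, and UMIs were collapsed. Cleaved product abundance is the per-construct ratio of RNA to gDNA barcodes, scaled to the median of constructs carrying the unmutated site.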

Where [1] appears, read: experiment (reporter, strain, medium): exp 2b: truncated aprE reporter, strain BJT200, cleavage site: cggR-gapA (positions -7 to +36 mutated).
The mark [2] stands for this setting: experiment (reporter, strain, medium): exp 4a: truncated aprE reporter, strain BJT201 with 2% xylose (RNase J1 expressed), cleavage site: cggR-gapA (positions -7 to +36 mutated).
The mark [3] stands for this setting: experiment (reporter, strain, medium): exp 8a: truncated aprE reporter, strain BJT201 with 2% xylose (RNase J1 expressed), cleavage site: glnRA (positions -5 to +31 mutated).
Where [4] appears, read: experiment (reporter, strain, medium): exp 6: tetM reporter, strain 168, cleavage site: cggR-gapA (positions -7 to +36 mutated).

As for “ACAGACGAAGGAGCCGCAAAGAAGTTATTAACGGATGAATAATACCTCAATATAAATATCTCTCACTTATTTAAA”, the “cleaved RNA product abundance” value came to 0.0908 under setting [1] and 0.136 under setting [2]. On to “ACAGACGAAGGAGCCGCAAAGAAGTTATTAAGGGATGAATAATCCCTCAATATAAATATCTCTCCTTATTTAAAG”, for which the “cleaved RNA product abundance” value under setting [1] worked out at 0.315. For “CGACATGTCCCGCTTCTTTCATTAATCCGTTAGCACCTCTTTTGCTATATACATTTACCTTTTAAGAGGAGGAAT”, under setting [3], the “cleaved RNA product abundance” value is 0.235. With “ACAGACGAAGGAGCCGCAAATAAGTTATTAAGAGATGAATAATCCCTCAATATAAATATCTCTCACTTATTTAAA”, the “cleaved RNA product abundance” value under setting [1] stood at 0.12 and the “cleaved RNA product abundance” value under setting [2] was found to be 0.13. Regarding “ACAGACGAAGGAGCCGCAAAGAAGTTATTAAGCGATGAATAATCCCTCTATATAAATATCTCTCACTTATTTAAA”, the “cleaved RNA product abundance” value under setting [2] was determined as 0.0811. Regarding “CGACATGTCCCGCTTCTTTCATTATTCCGTTAACAACTGTTTTACTATATACATTTACCTTTTAAGAGGAGGAAT”, the “cleaved RNA product abundance” value under setting [3] worked out at 0.257. Turning to “CGACATGTCCCGCTTCTTTCATTAATCCGTTAGCAATTGTTTTGCTATATACATTTACCTTTTAAGAGGAGGAAT”, under setting [3], the “cleaved RNA product abundance” value came to 1.24. On to “CGACATGTCCCGCTTCTTTCATTAATCGGTTAGCAACTGTTTTGCTATATATATTTACCTTTTAAGAGGAGGAAT”, for which, under setting [3], the “cleaved RNA product abundance” value is 0.947.

Regarding “CGACATGTCCCGCTTCTTTCATTACTCCGTTAGCAACTGTATTGCTATATACATTTACCTTTTAAGAGGAGGAAT”, under setting [3], the “cleaved RNA product abundance” value stood at 0.89. As for “ACAGACGAAGGAGCCGCAAAGAAGTTATTCAGGGATGAATAATCCCTCAATATAAAAATCTCTCACTTATTTAAA”, the “cleaved RNA product abundance” value under setting [2] came out at 0.461. As to “ACAGACGAAGGAGCCGCAAAGAAGTTATTAAGGGATGAATAATCCCGCATTATAAATATCTCTCACTTATTTAAA”, the “cleaved RNA product abundance” value under setting [2] was found to be 0.101. For “ACAGACGAAGGAGCCGCAAGGAAGTTATTAAGGGATGAATAATCCCTCAAAATAAATATCTCTCACTTATTTAAA”, the “cleaved RNA product abundance” value under setting [2] was determined as 0.314. Turning to “ACAGACGAAGGAGCCGCAAAGAAGTTAATAAGGGATGAATAATCTCTCAATATAAATATCTCTCACTTATTTAAA”, the “cleaved RNA product abundance” value by setting is: under setting [1], 0.195; under setting [2], 0.292. In the case of “ACAGACGAAGGAGCCGCAAAGAAGTTATTACGGGATGAATAAACCCTCAATATAAATATCTCTCACTTATTTAAA”, under setting [2], the “cleaved RNA product abundance” value was 0.158. Take “ACAGACGAAGGAGCCGCAAAGAAGTTATTAAGGGGTGAATAATCCCTAAATATAAATATCTCTCACTTATTTAAA”: under setting [2], the “cleaved RNA product abundance” value was determined as 0.554.

Take “ACAGACGAAGGAGCCGCAAATAAGTTATTTAGGGATGAATAATCCCTCAATATAAATATCTCTCACTTATTTAAA”: the “cleaved RNA product abundance” value runs as follows: under setting [1], 0.993; under setting [2], 0.766. For “ACAGACGAAGGAGCCGCAAAGAACTTATTAAGGCATGAATAATCCCTCAATATAAATATCTCTCACTTATTTAAA” the same measures were 0.114 and 0.099. Regarding “CGACATGTCCCGCTTCTTTCATTAATCCGTTAGCAACTGTTATTCTATATACATTTACCTTTTAAGAGGAGGAAT”, the “cleaved RNA product abundance” value under setting [3] was found to be 0.506.

Regarding “CGACATGTCCCGCTTCTTTCATTAATCCGTTAGCAACTGTTTTTCTATATATATTTACCTTTTAAGAGGAGGAAT”, under setting [3], the “cleaved RNA product abundance” value turned out to be 0.668. Turning to “CGACATGTCCCGCTTCTTTCATTAATCCGTTAACAACTGTTTTGCTAAATACATTTACCTTTTAAGAGGAGGAAT”, under setting [3], the “cleaved RNA product abundance” value is 0.202. On to “CGACATGTCCCGCTTCTTTCATTAATACGTTAGCAATTGTTTTGCTATATACATTTACCTTTTAAGAGGAGGAAT”, for which the “cleaved RNA product abundance” value under setting [3] came out at 0.823. Consider “ACAGACGAAGGAGCCGCAAAGGAGTTATTAAGGGATGAATAATCCCTCAATAAAAATATCTCTCACTTATTTAAA”, for which, under setting [1], the “cleaved RNA product abundance” value was 0.165. Still for that read-out and setting: for “ACAGACGAAGGAGCCGCAAAGAAGCTATTAAGGGATGAATAATTCCTCAATATAAATATCTCTCACTTATTTAAA” the value was 0.432. Consider “ACAGACGAAGGAGCCGCAAAGAAGTTATTAAGGGATGAATAATCCCTCAATATAAATATCTCTCGCTTATTTAAA”, for which, under setting [2], the “cleaved RNA product abundance” value was found to be 0.778. In the case of “CGACATGTCCCGCTTCTTTCATTAATCCGTTAGCAACTGTTGTACTATATACATTTACCTTTTAAGAGGAGGAAT”, the “cleaved RNA product abundance” value under setting [3] is 0.713. On to “ACAGACGAAGGAGCCGCAAAGAAGTTATTAAGGGGATGAATAATCCCTCAATATAAATATCTCTCACTTATTTAA”, for which, under setting [2], the “cleaved RNA product abundance” value turned out to be 0.237. For the sequence “ACAGACGAAGGAGCCGGAAAGAAGTTATTAAGGGATGAATAATCCCTCAATATAAATATCTCTCACTTATTTAAA”, the “cleaved RNA product abundance” value under setting [4] came out at 0.897. Take “CGACATGTCCCGCTTCTTTCATTAATCCGTTAGCATCTGTTTTGCTATATACATTTACGTTTTAAGAGGAGGAAT”: under setting [3], the “cleaved RNA product abundance” value came to 0.589. As to “ACAGACGAAGGAGCCGCAAAGAAGTTGTTAAGGGATGAATAATCCCTAAATATAAATATCTCTCACTTATTTAAA”, the “cleaved RNA product abundance” value is 0.274 under setting [1] and 0.376 under setting [2]. With “ACAGACGAAGGAGCCGCAAACAAGTTATTAAGGGATGAATATTCCCTCAATATAAATATCTCTCACTTATTTAAA”, the “cleaved RNA product abundance” value under setting [2] turned out to be 0.608. As for “ACAGACGAAGGAGCCGCAAAGAAGTCATTAAGGGATGAATAATCCCTGAATATAAATATCTCTCACTTATTTAAA”, the “cleaved RNA product abundance” value under setting [2] worked out at 0.136. As for “ACAGACGAAGGAGCCGCAAAGAAATGATTAAGGGATGAATAATCCCTCAATATAAATATCTCTCACTTATTTAAA”, the “cleaved RNA product abundance” value reads like this: under setting [1], 0.354; under setting [2], 0.457.

For “ACAGACGAAGGAGCCGCAAAGAAGTTATTTAGGGATGAATAATCCCACAATATAAATATCTCTCACTTATTTAAA”, the “cleaved RNA product abundance” value under setting [2] came out at 0.268. As for “ACAGACGAAGGAGCCGCAAAGAAGTTATTAAGGGATGAATTTTCCCTCAATATAAATATCTCTCACTTATTTAAA”, the “cleaved RNA product abundance” value under setting [2] worked out at 0.73. With “ACAGACGAAGGAGCCGCAAAGAAGTTATTAAGCGATCAATAATCCCTCAATATAAATATCTCTCACTTATTTAAA”, the “cleaved RNA product abundance” value runs as follows: under setting [1], 0.0893; under setting [2], 0.0886. In the case of “ACAGACGAAGGAGCCGCAAAAAAGTTATTAAGGGATGAATAATCCCTCGATATAAATATCTCTCACTTATTTAAA”, the “cleaved RNA product abundance” value under setting [1] is 0.396 and the “cleaved RNA product abundance” value under setting [2] was determined as 0.555.

As for “ACAGACGAAGGAGCCGCAAAGAAGTTATTTAGGGATGAACAATCCCTCAATATAAATATCTCTCACTTATTTAAA”, under setting [2], the “cleaved RNA product abundance” value is 0.85. In the case of “ACAGACGAAGGAGCCGCAAAGAAGTTATTAAAGGATGAATAATCTCTCAATATAAATATCTCTCACTTATTTAAA”, the “cleaved RNA product abundance” value under setting [2] turned out to be 0.149. As for “CGACATGTCCCGCTTCTTTCATTAATCCGTTATCAATTGTTTTGCTATATACATTTACCTTTTAAGAGGAGGAAT”, the “cleaved RNA product abundance” value under setting [3] is 0.199. For the sequence “ACAGACGAAGGAGCCGCAAAGAAGTTATGAAAGGATGAATAATCCCTCAATATAAATATCTCTCACTTATTTAAA”, the “cleaved RNA product abundance” value under setting [2] worked out at 0.178. In the case of “CGACATGTCCCGCTTCTTTCATTAATCCGTTAACAACTGTTTTGATATATACATTTACCTTTTAAGAGGAGGAAT”, the “cleaved RNA product abundance” value under setting [3] was found to be 0.235.

On to “ACAGACGAAGGAGCCGCAAAGAAGTTATTAAGCGATGAATAATTCCTCAATATAAATATCTCTCACTTATTTAAA”, for which the “cleaved RNA product abundance” value by setting is: under setting [1], 0.0741; under setting [2], 0.096. Turning to “ACAGACGAAGGAGCCGCAAAAAAGTTATTAAGGGATGAATAATCCCTCAATATAAACATCTCTCACTTATTTAAA”, under setting [2], the “cleaved RNA product abundance” value worked out at 0.766. For the sequence “CGACATGTCCCGCTTCTTTCATTAATCCTTTAGCAACTGTTTTGCAATATACATTTACCTTTTAAGAGGAGGAAT”, the “cleaved RNA product abundance” value under setting [3] amounted to 0.453. Turning to “CGACATGTCCCGCTTCTTTCATTAATCCGTGAGCAACTGTTTTGATATATACATTTACCTTTTAAGAGGAGGAAT”, under setting [3], the “cleaved RNA product abundance” value was 0.427. For the sequence “ACAGACGAAGGAGCCGCAAATAACTTATTAAGGGATGAATAATCCCTCAATATAAATATCTCTCACTTATTTAAA”, the “cleaved RNA product abundance” value reads like this: under setting [1], 0.465; under setting [2], 0.465; under setting [4], 0.719. Turning to “ACAGACGAAGGAGCCGCAAAGAAGTTATTAAGGGATAAATAATCCCACAATATAAATATCTCTCACTTATTTAAA”, the “cleaved RNA product abundance” value was found to be 0.253 under setting [1] and 0.356 under setting [2]. For “ACAGACGAAGGAGCCGCAAAGACGTTATTAATGGATGAATAATCCCTCAATATAAATATCTCTCACTTATTTAAA” the same measures were 0.115 and 0.115. With “ACAGACGAAGGAGCCGCAAAGAAGTTATTAAGAGATGAATAATACCTCAATATATATATCTCTCACTTATTTAAA”, the “cleaved RNA product abundance” value under setting [2] stood at 0.174. Take “ACAGACGAAGGAGCCGCAAAGAAGTAATTAAGGCATGAATAATCCCTCAATATAAATATCTCTCACTTATTTAAA”: the “cleaved RNA product abundance” value under setting [2] worked out at 0.0969. Turning to “ACAGACGAAGGAGCCGCAAAGAAGTTATTAAGCGATGAATAATCCCACAATATAAATATCTCTCACTTATTTAAA”, under setting [2], the “cleaved RNA product abundance” value was 0.0785.

For the sequence “ACAGACGAAGGAGCCGCATAGAAGTTATTAAGTGATGAATAATCCCTCAATATAAATATCTCTCACTTATTTAAA”, the “cleaved RNA product abundance” value runs as follows: under setting [1], 0.121; under setting [2], 0.0818. Consider “ACAGACGAAGGAGCCGCAAAGAAGTTATTAAGGGATCAATAATCTCTCAATATAAATATCTCTCACTTATTTAAA”, for which the “cleaved RNA product abundance” value is 0.312 under setting [1] and 0.342 under setting [2].

With “ACAGACGAAGGAGCCGCAAAAAAGTTATCAAGGGATGAATAATCCCTCAATATAAATATCTCTCACTTATTTAAA”, the “cleaved RNA product abundance” value under setting [2] was 0.507.
